Laboratory results taken from patent publication US20200147177A1, “INTERLEUKIN 12 (IL12) OR DERIVATIVE THEREOF FOR USE IN THE TREATMENT OF SECONDARY DISEASE” (priority 2017, published 2020).

Experiments:
[1] = test system: lung DC, macrophages and NK cells; test: Intracellular staining of DC, macrophages and lymphocytes for cytokines during secondary pneumonia; format: in vivo, mice; settings: IL-12 100 ng i.p.; secondary pneumonia 7 days after primary E. coli pneumonia; FIG. 11e
Procedure: For intracellular staining of cytokines in DC or lymphocytes, cell suspensions were obtained by mechanical and collagenase digestion of lungs collected 16 hours after injection of E. coli. Cells were cultured 4 hours in complete media with Golgi Plug, washed twice and then stained for surface markers. Fixation and permeabilization was performed following manufacturer instructions (BD Cytofix/Cytoperm kit, BD Bioscience). Anti-cytokine antibody was incubated overnight at 4° C. Cells were washed twice before FACS analysis.
Mice were treated with IL-12 (100 ng i.p., Abcam) concomitantly to the induction of the secondary pneumonia. Anti-TGFβ monoclonal antibody (1B11, 44 μg i.p. every 3 days) or isotype control IgG1 monoclonal antibody (MG1-45, Biolegend) injections were performed 3 and 6 days after primary pneumonia. TGF-β (1 μg i.p., Thermofisher) was injected once 6 days after primary pneumonia in DT-treated CD11c-DTR chimeric mice

E. coli, S. aureus = test: Bacterial pneumonia in mice cured from infection or from trauma-hemorrhage (FIG. 17); format: in vivo
Escherichia coli = test: Secondary E. coli pneumonia in infection-cured mice, c.f.u. in bronchoalveolar lavage; format: in vivo; settings: IL-12 100 ng i.p. concurrent with induction of secondary pneumonia; c.f.u. from BAL 16 hours after E. coli; FIG. 4g
NK cells = test: Functional assay of NK cells in PBMC treated or not overnight with IL12; format: cell-based, human; settings: PBMC of traumatic-brain injured patients day 1 and day 7 and healthy controls; overnight IL-12; 5-hours functional assay; FIG. 18
Text: (i) spontaneous lysis with and without O/N treatment with IL-12 of PBMC of traumatic-brain injured patients on days 1 (d1) (n=5) and day 7(d7) (n=5) and healthy controls (HC) (n=5) and (ii) reverse ADCC with and without O/N treatment with IL-12 of PBMC of TBI on days 1 (n=6) and 7 (n=6) and HC (n=4)
EDTA-anticoagulated blood samples were withdrawn seven days after primary infection in septic patients (IBIS sepsis), or at day 1 and day 7 ICU admission in trauma patients. Peripheral blood mononuclear cells (PBMCs) were isolated by centrifugation, frozen in liquid nitrogen in a 10% DMSO solution and stored until analysis.

B1: IL-12: heterodimeric cytokine encoded by IL-12A (p35) and IL-12B (p40); Abcam, 100 ng i.p. (protein, UniProt P43431 23-215; P43432 23-335, looked up)
Interleukin-12 subunit alpha: RVIPVSGPARCLSQSRNLLKTTDDMVKTAREKLKHYSCTAEDIDHEDITRDQTSTLKTCLPLELHKNESCLATRETSSTTRGSCLPPQKTSLMMTLCLGSIYEDLKMYQTEFQAINAALQNHNHQQIILDKGMLVAIDELMQSLNHNGETLRQKPPVGEADPYRVKMKLCILLHAFSTRVVTINRVMGYLSSA
Interleukin-12 subunit beta: MWELEKDVYVVEVDWTPDAPGETVNLTCDTPEEDDITWTSDQRHGVIGSGKTLTITVKEFLDAGQYTCHKGGETLSHSHLLLHKKENGIWSTEILKNFKNKTFLKCEAPNYSGRFTCSWLVQRNMDLKFNIKSSSSSPDSRAVTCGMASLSAEKVTLDQRDYEKYSVSCQEDVTCPTAEETLPIELALEARQQNKYENYSTSFFIRDIIKPDPPKNLQMKPLKNSQVEVSWEYPDSWSTPHSYFSLKFFVRIQRKKEKMKETEEGCNQKGAFLVEKTSTEVQCKGGNVCVQAQDRYYNSSCSKWACVPCRVRS
IFN-γ production by NK cells during secondary pneumonia [1]: restored
clinical recovery during bacterial pneumonia (E. coli, S. aureus): enhances clinical recovery
innate immune response during bacterial pneumonia (E. coli, S. aureus): restores innate immune response
bacterial clearance during secondary pneumonia (Escherichia coli): enhanced bacterial clearance
responsiveness of NK cells to IL-12 (IFNγ+ CD107a+ NK cells) (NK cells): remain responsive
